# Reference: the nanobody polyreactivity screen of Harvey et al. (2022)
# Assay: yeast display, Sf9 membrane polyspecificity reagent, FACS + sequencing; frameworks hold sequencing errors
# Method in brief: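 Nanobodies came from a synthetic yeast display library in Saccharomyces cerevisiae BJ5465, induced with galactose for 36–48 hours and stained for 1 hour at 4 °C with 10% biotinylated, detergent-solubilized Sf9 membrane reagent. Cells were enriched on streptavidin microbeads and then FACS-sorted, with low and high (top ~1%) gates set on anti-HA fluorescence for expression and streptavidin fluorescence for reagent binding. Each polyreactivity label reflects the gate a clone came from. Genes were amplified by colony PCR, sequenced by MiSeq 2 × 250 and filtered by CDR length.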
sequence,measurement,value
QVQLVESGGGLVKSGGSLRLSCAASGRIFYLYAMGWYRQAPGKERELVAAISRRGGGTSYADSVKGRFTISRDNAKNTVYFQMNSLKPEDTAVYYCNTAYSLGGYWGQGTQVTVSS,polyreactivity (PSR sort gate),high polyreactivity
QVQHVESARGLVQAGGSLRLSCAASGRTFFSYAMGGYRQAPGKERELVAAITSGGTTYYADSVKGRFTISRDNAKNTVYLQMNSLKPEDTAVYYCAVLGLGQKRGRAFLFPYDYWGQGTQVTVSS,polyreactivity (PSR sort gate),high polyreactivity
QVQLVESGGGLVQAGGSLRLSCAASGSTFPPNAMGWYRQARGKARELVAVISYSDGSTYYADSVNGRFTISRDNAKNTVYLQMNSLKPEDTAVYYCAAYSGYAGVSMYYWGQGTQVTVSS,polyreactivity (PSR sort gate),low polyreactivity
QVQLVESGGGLVQAGGSLRLSCAASGRIFGQNAMGWYRQAPGKERELVAVISQSGGRTYYADSVKGRFTISRDNAKNTVYLQMNSLKPEDTAVYYCAKGGYQHYWGQGTQVTVSS,polyreactivity (PSR sort gate),high polyreactivity
QVQLVESGVGLVQAGGSLRLSSDASGSIFGTYAMGWYRQAPGKERELVAAITGNGGRTYYADSVKGRFTISRDNAKNTVYLQMHSLKAEDTAVYSCAISSSRGGFYYWGQGNQVTVSS,polyreactivity (PSR sort gate),high polyreactivity
QVQLVESGGGLVQAGGSLRLSCAASGSTFKYYAMGWYRQAPGKERELVAAISRRGGSTYYADSVKGRFTISRDNAKNTVYLQMNSLKPEDTAVYYCAARLPGYYGIGDYWGQGTQVTVSS,polyreactivity (PSR sort gate),high polyreactivity
QVQLVESGGGLVQAVGSLRLSCAASGSTFLLNAMGWYRQAPGKEREFVAAITGNAGSTYYADSVKGRFTISRDNAKNTVYLQMNSLKPEDTAVYYCAAALPGYDGDYWGQGTQVTVSS,polyreactivity (PSR sort gate),low polyreactivity
QVQLVESGGGLVQAGGSLRLSCAASGSIFNGYAMGWYRQSPGKERELVAVISGSGGSTYYADSVKGRFTISRDNAKNTVYLQMNSLKPEDTAVYYCAAKPGYYGYWGQGTQVTVSS,polyreactivity (PSR sort gate),high polyreactivity
QVQLVESGGGLVQAGGSLRLSCAASGRTFNYYAMGWYRQAPGKERESVAAISWRGGSTYYADSVKGRFTISRDNAKNTVYLQMNSLKPEDTAVYYCNKYFSWRPYSYYYWGQGTQVTVSS,polyreactivity (PSR sort gate),high polyreactivity
QVQLVESGRGLVQAGGSLRLSCAASGFTFVWYAMGWYIPAPGKERELVAAISRRGTRTYYADSVKGRFTISRDNAKNTVYLQMNSLKPEDTAVYYCASESILGYDYWGQSTQVTVSS,polyreactivity (PSR sort gate),high polyreactivity
QVQLVESGGGLDQAGGSLRLSCAASGSIFRRYTMGWYRQAPGKERELVAAISRVGNTNYADSVKGRITISRDNAKNTVYFQMNSLKPEDTEVYYCAARAIGYRYTPGLNYWGQGTQVTVSS,polyreactivity (PSR sort gate),high polyreactivity
QVQLLESGGGLVQAGGSLRLSCAASGFTFQYYAMGWYRQAPGKERELVAAITRGDSTNYADSVKGRFTISRDNAKNTVYLQMNSLKPEDTAVYYCAAGSAPSYWGGWYYERDYWGQGTQVTVSS,polyreactivity (PSR sort gate),low polyreactivity
QVQLVESGGGLVQAGGSLRLSCAASGSIFPIYAMGWYRQAPGKERELVAAINRSGGSTYYADSVKGRFTISRDNAKNTVYLQMNSLKPEDTAVYYCNADYGYHNQLFWGYYGWSSDHWGQGTQVTVSS,polyreactivity (PSR sort gate),low polyreactivity
QVQLVESGGGLVQAGGSLRLSCAASVSIIACYTMGWYRQATGTERELVAGIRRGGSTNYADSVKGRVTISRDNAKNTVYLQMNSLKPEDTAVYYCNAQRTRSYVLRTFDYWGQGTQVTVSS,polyreactivity (PSR sort gate),high polyreactivity
QVQLVESGGGLVQAGGSLRLSCAASGFTFQNYAMGWYRQAPGKERELVAAISWGGGSTYYADSVKGRFTISRDNAQNTVYLQMNSLKPEDTAVYYCNAYEYLSAGYDYWGQGTQVTVSS,polyreactivity (PSR sort gate),low polyreactivity
QVQLVESGGGLVQAGGSLRLSCAASGRTFVIYAMGWYRQAPGKEREFVPAISKGGGSTYYADSVKGRFTISRDNAKNTVYLQMNSLKPEDTAVYYCAAGYGTYYQSSRFDYWGQGTQVTVSS,polyreactivity (PSR sort gate),high polyreactivity
QVQLVESGGGLVQAGGSLRLSCAASGRTFRDNVMGWYRQAPGKERELVAAITWSSGSTHYADSVKGRFTISRDNAKNTVYLQMNSLKPEDTAVYYCAQKYGARTKYWEGWNVRYDYWGQGTQVTVSS,polyreactivity (PSR sort gate),low polyreactivity
